Measured values: US20120277286A1, “COMPOSITIONS AND METHODS FOR THE TREATMENT OR PREVENTION OF MITOCHONDRIAL DISEASES” (The Government of the USA, as represented by the Secretary, …, priority 2009, published 2012)
Numbering of substitutions follows the chain as printed. Names and notes keep the numbering of the source.

Legend:
HeLa cells [1] = assay: Parkin-induced mitophagy, loss of mitochondria by immunocytochemistry; format: cell-based; conditions: YFP-Parkin HeLa cells, 10 μM CCCP+10 mM 3-methyladenine or +100 nM Bafilomycin, 24 hours
Procedure: (§1) Cultured cells seeded in borosilicate chamber slides (Thermo Fisher Scientific) were transfected or cotransfected with YFP-Parkin, ECFP-Parkin, mCherry-Parkin, DsRed-Mito (Clontech Laboratories, Inc.), pcDNA3.1 (Invitrogen), vMIA, and/or Drp1K38A constructs using Fugene 6 (Roche). Parkin-myc was a gift from M. Cookson (National Institutes of Health, Bethesda, Md.). Cells were fixed 12-24 hours after transfection with 4% paraformaldehyde in PBS. Cells were stained with following primary antibodies: mouse monoclonal cytochrome c (BD), rabbit polyclonal Tom20 (Santa Cruz Biotechnology, Inc.), mouse monoclonal Parkin PRK8 (Santa Cruz Biotechnology, Inc.), rabbit polyclonal PMP70 (Invitrogen), and/or mouse monoclonal TRAP1 (Abcam); and with the following secondary antibodies: mouse and/or rabbit Alexa 488, 594, and 633 (Invitrogen). For assessment of mitochondrial membrane potential, cells were pulsed with 50 nM Mito-Tracker red (Invitrogen) for 15 min, washed, and incubated for an additional 10 minutes before fixation or imaging. For assessment of cell metabolic potential, cell nuclei were stained with Hoechst 33342 (Invitrogen).
(§2) Confocal microscopy of fixed samples, scoring of Parkin recruitment and Parkininduced mitophagy, and live cell imaging were performed as described previously (Narendra (2008) J Cell Biol 183: 795-803). Experiments in Mfn1/2 null cells were performed as described previously with minor modifications.
as §2, with “Parkin-induced” for “Parkininduced”, “imageing” for “imaging”, “modifications described in the supplemental methods (Narendra (2008) J Cell Biol 183: 795-803).” for “modifications.”

[2] = system: PINK1+/+ or PINK1−/− MEFs; assay: YFP-Parkin recruitment to mitochondria in MEFs; format: cell-based, mouse; conditions: 20 μM CCCP, 3 hours; for reconstitution of YFP-Parkin recruitment: PINK1−/− primary MEFs co-transfected with construct
Excerpt: HeLa YFP-Parkin, PINK1+/+ SV40 transformed MEFs cells, PINK1−/− SV40 transformed MEF, M17 neuroblastoma control shRNA, M17 neuroblastoma PINK1, and Mfn1/2−/− MEF cell lines have been described previously (Narendra (2008) J Cell Biol 183: 795-803). PINK1+/+ and PINK1−/− primary MEFs were isolated from embryos using a standard protocol (Gautier (2008) Proc Natl Acad Sci USA 105: 11364-11369). Parkin+/+ and Parkin−/− transformed MEFs were created by isolation of primary cells from embryos of B6.129S4-Park2tm1Shn/J mice (Jackson Labs), using a standard protocol (Gautier (2008) Proc Natl Acad Sci USA 105: 11364-11369), followed by retroviral transduction of SV40 (Applied Biological Materials, Inc.). YFP-Parkin, YFPParkin mutants, mCherry-Parkin, PINK1-YFP, PINK1 KD-YFP, PINK1 Δ1-110-YFP, and Opa3-PINK1 Δ1-110-YFP are in C1 or N1 Clontech vectors. PINK1WT-V5, PINK1 KD-V5, and PINK1 Δ1-156-V5 are in pDest40 vector (Invitrogen). PINK1 patient mutations are in pLenti-V5 vector (Invitrogen). PINK1-myc is in a pCMBTNT vector (Promega).
as §2
HeLa YFP-Parkin, E18 Rat cortical neurons, PINK1^+/+ SV40 transformed MEFs cells, PINK1^−/− SV40 transformed MEF, M17 neuroblastoma control shRNA, M17 neuroblastoma PINK1, Mfn1/2^−/− MEF, and Parl^−/− MEF cell lines have been described previously (Narendra (2008) J Cell Biol 183: 795-803). PINK1^+/+ and PINK1^−/− primary MEFs were isolated from embryos using a standard protocol (Gautier (2008) Proc Natl Acad Sci USA 105: 11364-11369). Parkin^+/+ and Parkin^−/− transformed MEFs were created by isolation of primary cells from embryos of B6.129S4-Park2^tm1Shn/J mice (Jackson Labs), using a standard protocol (Gautier (2008) Proc Natl Acad Sci USA 105: 11364-11369), followed by retroviral transduction of SV40 (Applied Biological Materials, Inc.). YFP-Parkin, YFP-Parkin mutants, mCherry-Parkin, PINK1-YFP, PINK1 KD-YFP, PINK1 Δ1-110-YFP, and Opa3-PINK1 Δ1-110-YFP are in C1 or N1 Clontech vectors. PINK1WT-V5, PINK1 KD-V5, and PINK1 Δ1-156-V5 are in pDest40 vector (Invitrogen). PINK1 patient mutations are in the pLenti-V5 vector (Invitrogen). PINK1-myc is in a pCMBTNT vector (Promega). The PARL shRNA construct targeting (5′ […] 3′) is in the pSuper-GFP vector. To make FRB-PINK1 (111-581)-YFP and Tom20 (1-33)-FKBP, PCR fragments containing PINK1 (111-581)-YFP and Tom20 (1-33) were cloned into the BamHI site of the pC4-RHE vector and the EcoRI and XbaI sites of pC4M-F2E vectors, respectively (ARIAD Pharmaceuticals). The rapamycin analogue AP21967 was obtained from ARIAD Pharmaceuticals. The PARL shRNA construct targeting (5′ […] 3′) is in the pSuper-GFP vector (OligoEngine).
as §2, with “Parkin-induced” for “Parkininduced”, “imageing” for “imaging”, “modifications described in the supplemental methods (Narendra (2008) J Cell Biol 183: 795-803).” for “modifications.”

HeLa cells [3] = assay: Parkin colocalization with mitochondria scored by confocal microscopy; format: cell-based; conditions: HeLa transfected with Flag-tagged Twinkle for 5 days
Procedure: as §1
Fixed cells and live cells in the FLIP assay were imaged using an inverted microscope (LSM510 Meta; Carl Zeiss, Inc.) with a 63×/1.4 oil DIC Plan Apo objective at 25° C. and 37° C., respectively. For the FLIP assay, a bleach region of interest (ROI) occupying approximately one eighth of the cell was positioned over a relatively mitochondria-free portion of the cytosol. Cells were alternately bleached (488 nm using a 30-mW argon laser at 75% power and 100% transmission for 150 iterations) and imaged (488 nm at 75% power and 2% transmission) for 10 minutes (—60 cycles over the length of the experiment). Two channel prebleach and postbleach images were obtained with 488 and 594 lasers to assess the position of mitochondria before and after bleaching. Circular ROIs with diameters of ˜1 and 5 μm, respectively, were placed over the mitochondria and cytosol of the target cell, and an ROI of 10 μm was placed over the control cell. Imaging of YFP-Parkin translocation in live HeLa cells was performed on a live cell imager system (UltraView LCI; PerkinElmer) at 35° C. with a 100×/1.45 α-Plan-Fluor objective.
Image contrast and brightness were adjusted in Photoshop (Adobe). Colocalization was assessed with line scans using MetaMorph (MDS Analytical Technologies). For analysis of mitochondrial membrane potential in cells, mitochondrial voxels in each image (the cytochrome c channel threshold was ≧400 au) were segregated into Parkin-positive (the YFP-Parkin channel threshold was ≧1,100 au) or Parkin-negative subsets, and MitoTracker intensity for each voxel was measured using Volocity software (Improvision). For each cell, the mean MitoTracker intensity per voxel was calculated for the Parkin-positive and Parkin-negative subsets. The difference in mean Mito-Tracker intensity between the Parkin-positive and Parkin-negative subsets was calculated using a paired t test. Western blotting HeLa cells stably expressing YFP-Parkin, HEK293 cells, and rat cortical neurons 2 days in vitro were harvested and fractionated as described previously (Karbowski et al., J. Cell Biol. 178: 71-84, 2007). Samples were run on SDS-PAGE and immunoblotted with the following antibodies: polyclonal rabbit anti-GFP (Invitrogen), mouse monoclonal anti-Parkin (PRK8), and mouse monoclonal anti-Porin 31HL (EMD).
as §2
Confocal microscopy of fixed samples, scoring of Parkin recruitment and Parkin-induced mitophagy, and live cell imageing were performed as described previously (Narendra (2008) J Cell Biol 183: 795-803). […]

Cn1cnc(N)c2ncnc1-2 [3-methyl adenine, reference compound]
effect on Parkin-induced mitophagy (HeLa cells [1]): blocked

CO/C1=C\C(C)=C\[C@@H](C)[C@@H](O)[C@@H](C)C/C(C)=C/C=C/[C@H](OC)[C@@H]([C@@H](C)[C@@H](O)[C@H](C)[C@@]2(O)C[C@@H](O)[C@H](C)[C@@H](C(C)C)O2)OC1=O [bafilomycin, reference compound]
effect on Parkin-induced mitophagy (HeLa cells [1]): blocked

B1: L347P: patient mutant of PINK1, V5-tagged (protein, UniProt Q9BXM7 78-581, looked up, variant L347P)
Serine/threonine-protein …: AARLQRQFVVRAWGCAGPCGRAVFLAFGLGLGLIEEKQAESRRAVSACQEIQAIFTQKSKPGPDPLDTRRLQGFRLEEYLIGQSIGKGCSAAVYEATMPTLPQNLEVTKSTGLLPGRGPGTSAPGEGQERAPGAPAFPLAIKMMWNISAGSSSEAILNTMSQELVPASRVALAGEYGAVTYRKSKRGPKQLAPHPNIIRVLRAFTSSVPLLPGALVDYPDVLPSRLHPEGLGHGRTLFLVMKNYPCTLRQYLCVNTPSPRLAAMMLLQLPEGVDHLVQQGIAHRDLKSDNILVELDPDGCPWLVIADFGCCLADESIGLQLPFSSWYVDRGGNGCLMAPEVSTARPGPRAVIDYSKADAWAVGAIAYEIFGLVNPFYGQGKAHLESRSYQEAQLPALPESVPPDVRQLVRALLQREASKRPSARVAANVLHLSLWGEHILALKNLKLDKMVGWLLQQSAATLLANRLTEKCCVETKMKMLFLANLECETLCQAALLLCSWRAAL
modifications: V5 tag
notes: patient mutant of PINK1, V5-tagged
reconstitution of YFP-Parkin recruitment [2]: failed to reconstitute

B2: H271Q: patient mutant of PINK1, V5-tagged (protein, UniProt Q9BXM7 78-581, looked up, variant H271Q)
Serine/threonine-protein …: B1 Serine/threonine-protein … with H194Q, P270L
modifications: V5 tag
notes: as for B1
reconstitution of YFP-Parkin recruitment [2]: failed to reconstitute

B3: G411S: PINK1 polymorphism, V5-tagged (protein, UniProt Q9BXM7 78-581, looked up, variant G411S)
Serine/threonine-protein …: B1 Serine/threonine-protein … with P270L, G334S
modifications: V5 tag
notes: PINK1 polymorphism, V5-tagged
YFP-Parkin recruited to mitochondria, % of cells ([2]; PINK1−/− primary MEFs expressing the PINK1 construct): 74.2±5.4%

B4: A168P: patient mutant of PINK1, V5-tagged (protein, UniProt Q9BXM7 78-581, looked up, variant A168P)
Serine/threonine-protein …: B1 Serine/threonine-protein … with A91P, P270L
modifications: V5 tag
notes: as for B1
reconstitution of YFP-Parkin recruitment [2]: failed to reconstitute

B5: wild-type Twinkle: Flag-tagged wild-type mitochondrial DNA helicase Twinkle (protein, UniProt Q96RR1 32-684, looked up)
Twinkle mtDNA helicase: APGPPRRRYRKETLQALDMPVLPVTATEIRQYLRGHGIPFQDGHSCLRALSPFAESSQLKGQTGVTTSFSLFIDKTTGHFLCMTSLAEGSWEDFQASVEGRGDGAREGFLLSKAPEFEDSEEVRRIWNRAIPLWELPDQEEVQLADTMFGLTKVTDDTLKRFSVRYLRPARSLVFPWFSPGGSGLRGLKLLEAKCQGDGVSYEETTIPRPSAYHNLFGLPLISRRDAEVVLTSRELDSLALNQSTGLPTLTLPRGTTCLPPALLPYLEQFRRIVFWLGDDLRSWEAAKLFARKLNPKRCFLVRPGDQQPRPLEALNGGFNLSRILRTALPAWHKSIVSFRQLREEVLGELSNVEQAAGLRWSRFPDLNRILKGHRKGELTVFTGPTGSGKTTFISEYALDLCSQGVNTLWGSFEISNVRLARVMLTQFAEGRLEDQLDKYDHWADRFEDLPLYFMTFHGQQSIRTVIDTMQHAVYVYDICHVIIDNLQFMMGHEQLSTDRIAAQDYIIGVFRKFATDNNCHVTLVIHPRKEDDDKELQTASIFGSAKASQEADNVLILQDRKLVTGPGKRYLQVSKNRFDGDVGVFPLEFNKNSLTFSIPPKNKARLKKIKDDTGPVAKKPSSGKKGATTQNSEICSGQAPTPDQPDTSKRSK
modifications: Flag tag
cells with Parkin localized to mitochondria (HeLa cells [3]): 6.7±1.2%
